Here are results for eight molecules from US20080226630A1 (SYMPHOGEN A S, published 2008).

The target of test [1] is T1, recombinant human fractalkine (CX3CL1; R&D systems) (human, UniProt P78423 25-100).
T1 sequence (looked up): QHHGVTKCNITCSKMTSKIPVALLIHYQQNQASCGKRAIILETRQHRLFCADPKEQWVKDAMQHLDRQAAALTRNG
Nature of the test: ELISA on recombinant human fractalkine. (In general: In an ELISA, binding on a coated surface is turned into a signal by an enzyme label.)

Test [2] deals with T2, G protein of RSV strain Long (subtype A) (human respiratory syncytial virus …, UniProt P20895 1-298).
T2 chain: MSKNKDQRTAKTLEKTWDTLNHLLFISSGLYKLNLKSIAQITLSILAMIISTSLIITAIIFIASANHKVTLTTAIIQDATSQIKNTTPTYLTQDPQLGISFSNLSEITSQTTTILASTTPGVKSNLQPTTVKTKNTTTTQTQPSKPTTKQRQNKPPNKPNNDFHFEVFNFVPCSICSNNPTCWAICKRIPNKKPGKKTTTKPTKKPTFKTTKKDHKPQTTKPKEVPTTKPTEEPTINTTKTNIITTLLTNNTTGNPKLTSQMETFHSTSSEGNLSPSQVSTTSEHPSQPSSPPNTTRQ
Nature of the test: cell-based or functional assay.

In test [3] the target is T3, G protein of RSV strain 18537 (subtype B) (human respiratory syncytial virus …, UniProt P20896 1-292).
T3 sequence: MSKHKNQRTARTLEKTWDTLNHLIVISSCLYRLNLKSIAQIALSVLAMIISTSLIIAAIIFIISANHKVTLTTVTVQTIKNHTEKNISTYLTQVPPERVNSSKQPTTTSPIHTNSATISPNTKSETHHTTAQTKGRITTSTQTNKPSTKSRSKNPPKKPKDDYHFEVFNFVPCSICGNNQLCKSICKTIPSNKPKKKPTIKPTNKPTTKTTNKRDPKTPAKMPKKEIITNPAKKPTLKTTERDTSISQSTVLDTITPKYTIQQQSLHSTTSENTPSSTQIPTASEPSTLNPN
The test is described as follows: cell-based or functional assay.

Test [4] addresses F protein of RSV strain Long (human respiratory syncytial virus …, UniProt P12568 26-574). The test is described as follows: cell-based or functional assay.
Test [5] addresses F protein of RSV strain A2 (human respiratory syncytial virus …, UniProt P03420 26-574). The test is described as follows: cell-based or functional assay.
Test [6] deals with F protein of RSV strain 18537 (human respiratory syncytial virus …, UniProt P13843 26-574). Nature of the test: cell-based or functional assay.
F protein of RSV strain 18537, sequence (P13843 26-574): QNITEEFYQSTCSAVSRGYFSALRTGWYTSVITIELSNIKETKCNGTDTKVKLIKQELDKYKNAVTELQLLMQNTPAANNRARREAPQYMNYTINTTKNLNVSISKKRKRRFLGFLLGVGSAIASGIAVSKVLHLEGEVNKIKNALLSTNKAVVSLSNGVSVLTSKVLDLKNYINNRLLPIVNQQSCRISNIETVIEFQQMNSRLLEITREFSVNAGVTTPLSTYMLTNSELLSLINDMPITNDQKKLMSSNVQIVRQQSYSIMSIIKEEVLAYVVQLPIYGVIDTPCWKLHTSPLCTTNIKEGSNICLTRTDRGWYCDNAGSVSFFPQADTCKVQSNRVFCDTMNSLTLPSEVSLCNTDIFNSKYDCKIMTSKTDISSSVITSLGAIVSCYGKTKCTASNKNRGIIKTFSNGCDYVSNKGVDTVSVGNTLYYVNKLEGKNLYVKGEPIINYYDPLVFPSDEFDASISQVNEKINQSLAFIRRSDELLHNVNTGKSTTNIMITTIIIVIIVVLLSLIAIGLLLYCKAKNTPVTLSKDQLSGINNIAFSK

F protein of RSV strain A2, sequence (P03420 26-574): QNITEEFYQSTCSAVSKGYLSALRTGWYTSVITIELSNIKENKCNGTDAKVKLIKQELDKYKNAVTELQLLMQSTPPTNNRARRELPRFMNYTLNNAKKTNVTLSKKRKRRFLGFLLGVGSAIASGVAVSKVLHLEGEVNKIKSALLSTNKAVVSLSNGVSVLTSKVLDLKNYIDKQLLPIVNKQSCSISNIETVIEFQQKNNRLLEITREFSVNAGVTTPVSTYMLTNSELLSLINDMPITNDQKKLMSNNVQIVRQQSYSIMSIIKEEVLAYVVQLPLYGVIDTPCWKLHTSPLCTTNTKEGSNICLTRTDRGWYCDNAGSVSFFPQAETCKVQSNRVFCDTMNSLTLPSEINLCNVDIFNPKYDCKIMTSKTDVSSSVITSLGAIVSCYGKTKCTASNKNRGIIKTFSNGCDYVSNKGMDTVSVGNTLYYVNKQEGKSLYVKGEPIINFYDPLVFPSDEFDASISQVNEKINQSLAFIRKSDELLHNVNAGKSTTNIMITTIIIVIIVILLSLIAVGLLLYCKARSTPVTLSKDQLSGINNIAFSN
F protein of RSV strain Long, sequence (P12568 26-574): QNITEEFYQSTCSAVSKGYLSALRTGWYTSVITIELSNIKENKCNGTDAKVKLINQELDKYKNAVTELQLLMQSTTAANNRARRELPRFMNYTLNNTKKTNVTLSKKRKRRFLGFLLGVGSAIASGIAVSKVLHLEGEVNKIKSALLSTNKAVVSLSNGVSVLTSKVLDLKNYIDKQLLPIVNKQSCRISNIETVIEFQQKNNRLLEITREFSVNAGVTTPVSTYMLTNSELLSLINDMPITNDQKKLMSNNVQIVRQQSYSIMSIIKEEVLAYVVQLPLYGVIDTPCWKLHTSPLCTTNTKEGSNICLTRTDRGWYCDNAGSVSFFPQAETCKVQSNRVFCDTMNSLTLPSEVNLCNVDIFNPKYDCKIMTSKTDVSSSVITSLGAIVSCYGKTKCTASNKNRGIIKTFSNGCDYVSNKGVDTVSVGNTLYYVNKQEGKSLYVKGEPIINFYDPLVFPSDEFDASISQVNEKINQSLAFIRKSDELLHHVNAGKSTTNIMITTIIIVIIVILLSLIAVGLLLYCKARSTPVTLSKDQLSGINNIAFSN

B1: antibody 835 (clone 835) (antibody, human IgG1, kappa, V domains shown)
VH: QVQLVQSGAEVKRPGASVKVSCKASGYTFISYGFSWVRQAPGQGLEWMGWSSVYNGDTNYAQKFHGRVNMTTDTSTNTAYMELRGLRSDDTAVYFCARDRNVVLLPAAPFGGMDVWGQGTMVTVSS
VL: DIQLTQSPSFLSASLEDRVTITCRASQGISSYLAWYQQKPGKAPKLLLDAASTLQSGVPSRFSGSGSGTEFTLTISSLQPEDFATYYCQQLNSYPRTFGQGTKVDIKR
As for B1, in test [1], the binding result is given as “no binding”.

B2: antibody 856 (clone 856) (antibody, human IgG1, kappa, V domains shown)
VH: QVQLVQSGAEVKKPGASVKVSCKASGYTFSNYGFSWVRQAPGRGLEWMGWISAYNGNTYYAQNLQGRVTMTTDTSTTTAYMVLRSLRSDDTAMYYCARDGNTAGVDMWSRDGFDIWGQGTMVTVSS
VL: DIVMTQTPLSLPVTPGEPASISCRSSQSLLDSNDGNTYLDWYLQKPGQSPQLLIYTFSYRASGVPDRFSGSGSGTDFTLKISRVEAEDVGVYYCMQRIEFPYTFGQGTKLEIKR
B2: the binding result in test [1] is “no binding”.

B3: antibody 888 (clone 888) (antibody, human IgG1, kappa, V domains shown)
VH: QLQLQESGPGLVKPSETLSLTCTASGGSINSSNFYWGWIRQPPGKGLEWIGSIFYSGTTYYNPSLKSRVTISVDTSKNQFSLKLSPVTAADTAVYHCARHGFRYCNNGVCSINLDAFDIWGQGTMVTVSS
VL: DIVMTQSPLSLPVTPGAPASISCRSSQSLLRTNGYNYLDWYLQKPGQSPQLLIYLGSIRASGVPDRFSGSGSGTDFTLKISRVEAEDVGVYYCMQSLQTSITFGQGTRLEIKR
On to B3, for which the “EC50, PRNT with complement, RSV Long” value in test [2] stood at 0.14 µg/mL. Further, the binding result in test [1] was “no binding”.

B4: antibody 793 (clone 793) (antibody, human IgG1, kappa, V domains shown)
VH: QVQLVESGGGLVKPGGSLRLSCAASGFPFGDYYMSWIRQAPGKGLEWVAYINRGGTTIYYADSVKGRFTISRDNAKNSLFLQMNSLRAGDTALYYCARGLILALPTATVELGAFDIWGQGTMVTVSS
VL: DIQMTQSPSSLSASVGDRVTITCRASQSITGYLNWYQQKPGKAPKLLIYATSTLQSEVPSRFSGSGSGTDFTLTISSLQPEDFATYYCQQSYNTLTFGGGTKVEIKR
For B4, in test [3], the “EC50, PRNT with complement, RSV 18537” value turned out to be 0.09 µg/mL. Besides, the “EC50, PRNT with complement, RSV Long” value in test [2] was 2.52 µg/mL. Besides, the binding result in test [1] is on record as “no binding”.

B5: Palivizumab (Synagis) (antibody, V domains shown)
VH: QVTLRESGPALVKPTQTLTLTCTFSGFSLSTSGMSVGWIRQPPGKALEWLADIWWDDKKDYNPSLKSRLTISKDTSKNQVVLKVTNMDPADTATYYCARSMITNWYFDVWGAGTTVTVSS
VL: DIQMTQSPSTLSASVGDRVTITCKCQLSVGYMHWYQQKPGKAPKLLIYDTSKLASGVPSRFSGSGSGTEFTLTISSLQPDDFATYYCFQGSGYPFTFGGGTKLEIK
As to B5, in test [4], the “EC50, PRNT with complement, RSV Long” value was 0.14 µg/mL. Moreover, the “EC50, PRNT with complement, RSV A2” value in test [5] was found to be 0.15 µg/mL. Besides, the “EC50, PRNT with complement, RSV 18537” value in test [6] came to 0.2 µg/mL.

B6: antibody 855 (clone 855) (antibody, human IgG1, kappa, V domains shown)
VH: QVQLVQSGPEVKKPGASVKVSCKASGYVLTNYAFSWVRQAPGQGLEWLGWISGSNGNTYYAEKFQGRVTMTTDTSTSTAYMELRSLRSDDTAVYFCARDLLRSTYFDYWGQGTLVTVSS
VL: DIQMTQSPSSVSASVGDRVTITCRASQAISNWLAWYQQKPGKAPKLLIYAASSLQSGVPSRFSGSGSGTDFTLTISGLQPEDFATYYCQQADTFPFTFGPGTKVDIKR
Turning to B6, the “EC50, PRNT with complement, RSV Long” value in test [2] worked out at 6.35 µg/mL. For the same molecule, in test [1], the binding result is reported as “no binding”.

B7: antibody 853 (clone 853) (antibody, human IgG1, kappa, V domains shown)
VH: EVQLVQSGAEVKKPGQSLKISCKTSGYIFTNYWIGWVRQRPGKGLEWMGVIFPADSDARYSPSFQGQVTISADKSIGTAYLQWSSLKASDTAIYYCARPKYYFDSSGQFSEMYYFDFWGQGTLVTVSS
VL: EIVLTQSPGTLSLSPGERATLSCRASQSVSSNYLAWYQQKPGQAPRLLIYGASSRAAGMPDRFSGSGSGTDFTLTISRLEPEDFAVYYCQQYGNSPLTFGGGTEVEIKR
On to B7, for which the “EC50, PRNT with complement, RSV 18537” value in test [3] was 0.14 µg/mL. Moreover, in test [2], the “EC50, PRNT with complement, RSV Long” value was 1.49 µg/mL and the “EC50, PRNT with complement, RSV Long (new determination)” value was 0.13 µg/mL. Moreover, in test [1], the binding result is reported as “no binding”.

B8: antibody 841 (clone 841) (antibody, human IgG1, kappa, V domains shown)
VH: QVQLVQSGAEVKKPGASVKVSCKASGYTFISFGISWVRQAPGQGLEWMGWISAYNGNTDYAQRLQDRVTMTRDTATSTAYLELRSLKSDDTAVYYCTRDESMLRGVTEGFGPIDYWGQGTLVTVSS
VL: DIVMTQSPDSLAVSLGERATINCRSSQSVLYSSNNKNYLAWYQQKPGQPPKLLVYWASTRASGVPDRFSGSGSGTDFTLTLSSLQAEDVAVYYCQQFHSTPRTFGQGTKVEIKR
On to B8, for which the binding result in test [1] is on record as “no binding”.
